T1: ARHGAP21, Q5T5U3
T1 sequence (Q5T5U3 45-169, limits assumed, looked up): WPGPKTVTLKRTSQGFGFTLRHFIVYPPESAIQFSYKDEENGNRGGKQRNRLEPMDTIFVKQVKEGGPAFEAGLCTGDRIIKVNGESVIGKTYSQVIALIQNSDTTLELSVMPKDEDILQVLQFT

T2: PDZD7_3, Q9H5P4
T2 sequence (Q9H5P4 857-944, limits assumed, looked up): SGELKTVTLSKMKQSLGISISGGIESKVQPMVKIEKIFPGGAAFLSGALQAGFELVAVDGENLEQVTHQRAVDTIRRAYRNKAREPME

T3: NHERF3_4, Q5T2W1
T3 sequence (Q5T2W1 373-468, limits assumed, looked up): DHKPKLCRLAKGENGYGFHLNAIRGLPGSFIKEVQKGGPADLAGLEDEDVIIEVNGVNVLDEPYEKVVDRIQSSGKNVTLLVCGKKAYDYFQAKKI

T4: FRMPD1, Q5SYB0
T4 sequence (Q5SYB0 52-145, limits assumed, looked up): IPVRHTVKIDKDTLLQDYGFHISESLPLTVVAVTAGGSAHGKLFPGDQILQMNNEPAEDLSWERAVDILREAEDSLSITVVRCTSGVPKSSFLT

T5: HTRA3, P83110
T5 sequence (P83110 354-453, limits assumed, looked up): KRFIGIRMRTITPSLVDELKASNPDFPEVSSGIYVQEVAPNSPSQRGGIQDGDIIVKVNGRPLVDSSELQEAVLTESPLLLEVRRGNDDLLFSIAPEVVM

T6: NHERF3_3, Q5T2W1
T6 sequence (Q5T2W1 238-333, limits assumed, looked up): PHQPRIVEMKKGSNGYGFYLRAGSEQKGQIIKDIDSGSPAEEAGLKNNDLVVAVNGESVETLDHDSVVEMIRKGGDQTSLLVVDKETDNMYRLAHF

T7: PDZD2_2, O15018
T7 sequence (O15018 329-429, limits assumed, looked up): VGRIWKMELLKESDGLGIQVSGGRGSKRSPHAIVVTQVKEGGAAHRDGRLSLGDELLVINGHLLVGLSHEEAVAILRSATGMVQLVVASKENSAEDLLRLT

T8: GRIP1_3, Q9Y3R0
T8 sequence (Q9Y3R0 247-346, limits assumed, looked up): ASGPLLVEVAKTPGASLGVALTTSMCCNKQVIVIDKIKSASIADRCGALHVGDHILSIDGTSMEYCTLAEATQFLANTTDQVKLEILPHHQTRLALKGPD

T9: APBA2_2, Q99767
T9 sequence (Q99767 654-744, limits assumed, looked up): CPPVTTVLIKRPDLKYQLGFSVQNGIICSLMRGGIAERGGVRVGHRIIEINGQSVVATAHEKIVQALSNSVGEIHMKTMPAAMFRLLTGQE

T10: LNX2_3, Q8N448
T10 sequence (Q8N448 463-564, limits assumed, looked up): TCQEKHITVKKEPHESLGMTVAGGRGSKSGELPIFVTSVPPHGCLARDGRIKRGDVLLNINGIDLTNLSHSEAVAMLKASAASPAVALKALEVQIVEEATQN

T11: APBA2_1, Q99767
T11 sequence (Q99767 563-664, limits assumed, looked up): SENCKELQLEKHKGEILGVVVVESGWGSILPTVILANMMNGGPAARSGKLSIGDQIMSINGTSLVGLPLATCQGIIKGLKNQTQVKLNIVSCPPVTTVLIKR

T12: LRRC7, Q96NW7
T12 sequence (Q96NW7 1440-1537, limits assumed, looked up): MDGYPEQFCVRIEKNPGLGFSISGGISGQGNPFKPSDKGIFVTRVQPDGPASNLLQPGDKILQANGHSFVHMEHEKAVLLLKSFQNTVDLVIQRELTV

T13: TJP3_3, O95049
T13 sequence (O95049 375-456, limits assumed, looked up): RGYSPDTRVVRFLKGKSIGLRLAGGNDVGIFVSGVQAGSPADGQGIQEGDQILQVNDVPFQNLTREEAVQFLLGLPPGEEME

B1: SLC22A11, Q9NSA0 (peptide)
chain: EAVTVESTSL
B2: CSPG4, Q6UVK1 (peptide)
chain: PALKNGQYWV
B3: KCNB1, Q14721 (peptide)
chain: AHGSTRDQSI

Biological target: DLG1_1, Q12959
Assay: holdup assay
Parameters: key: below the threshold = too weak to quantify, mostly under pKd 3.1 to 4
Conditions: plain residues with an end cap or a label only (N-terminal biotin on a linker: ado-ado)

| pKd | Binder |
| --- | --- |
| below the threshold | B1 |
| below the threshold | B2 |
| below the threshold | B3 |

Biological target: T1, ARHGAP21, Q5T5U3
Assay: holdup assay
Parameters: key: below the threshold = too weak to quantify, mostly under pKd 3.1 to 4
Conditions: plain residues with an end cap or a label only (N-terminal biotin on a linker: ado-ado)

| pKd | Binder |
| --- | --- |
| 4.12 | B1 |
| below the threshold | B2 |
| below the threshold | B3 |

Biological target: Inadl_5, Q8NI35
Sequence (Q8NI35 673-780): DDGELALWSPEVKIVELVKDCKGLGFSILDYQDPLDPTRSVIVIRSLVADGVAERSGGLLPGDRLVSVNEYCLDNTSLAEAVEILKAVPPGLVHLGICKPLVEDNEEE
Assay: holdup assay
Parameters: key: below the threshold = too weak to quantify, mostly under pKd 3.1 to 4
Conditions: plain residues with an end cap or a label only (N-terminal biotin on a linker: ado-ado)

| pKd | Binder |
| --- | --- |
| below the threshold | B1 |
| 4.31 | B2 |
| below the threshold | B3 |

Biological target: T2, PDZD7_3, Q9H5P4
Assay: holdup assay
Parameters: key: below the threshold = too weak to quantify, mostly under pKd 3.1 to 4
Conditions: plain residues with an end cap or a label only (N-terminal biotin on a linker: ado-ado)

| pKd | Binder |
| --- | --- |
| 4.8 | B1 |
| below the threshold | B2 |
| 3.67 | B3 |

Biological target: MAST1, Q9Y2H9
Sequence (Q9Y2H9 962-1065): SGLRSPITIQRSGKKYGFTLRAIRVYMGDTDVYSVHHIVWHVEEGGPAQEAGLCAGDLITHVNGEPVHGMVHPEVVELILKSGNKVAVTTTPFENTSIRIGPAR
Assay: holdup assay
Parameters: key: below the threshold = too weak to quantify, mostly under pKd 3.1 to 4
Conditions: plain residues with an end cap or a label only (N-terminal biotin on a linker: ado-ado)

| pKd | Binder |
| --- | --- |
| 5.07 | B1 |
| below the threshold | B2 |
| 3.69 | B3 |

Biological target: FRMPD3, Q5JV73
Sequence (Q5JV73 12-100): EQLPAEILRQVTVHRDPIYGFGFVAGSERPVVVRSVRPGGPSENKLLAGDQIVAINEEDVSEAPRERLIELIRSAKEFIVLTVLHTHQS
Assay: holdup assay
Parameters: key: below the threshold = too weak to quantify, mostly under pKd 3.1 to 4
Conditions: plain residues with an end cap or a label only (N-terminal biotin on a linker: ado-ado)

| pKd | Binder |
| --- | --- |
| below the threshold | B1 |
| below the threshold | B2 |
| below the threshold | B3 |

Biological target: GRIP2_7, Q9C0E4
Sequence (Q9C0E4 934-1023): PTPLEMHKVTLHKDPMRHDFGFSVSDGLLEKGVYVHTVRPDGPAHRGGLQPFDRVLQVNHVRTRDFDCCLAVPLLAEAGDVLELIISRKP
Assay: holdup assay
Parameters: key: below the threshold = too weak to quantify, mostly under pKd 3.1 to 4
Conditions: plain residues with an end cap or a label only (N-terminal biotin on a linker: ado-ado)

| pKd | Binder |
| --- | --- |
| below the threshold | B1 |
| 5.83 | B2 |
| below the threshold | B3 |

Biological target: GOPC, Q9HD26
Assay: holdup assay
Parameters: key: below the threshold = too weak to quantify, mostly under pKd 3.1 to 4
Conditions: plain residues with an end cap or a label only (N-terminal biotin on a linker: ado-ado)

| pKd | Binder |
| --- | --- |
| 4.18 | B1 |
| below the threshold | B2 |
| below the threshold | B3 |

Biological target: IL16_3, Q14005
Sequence (Q14005 1107-1207): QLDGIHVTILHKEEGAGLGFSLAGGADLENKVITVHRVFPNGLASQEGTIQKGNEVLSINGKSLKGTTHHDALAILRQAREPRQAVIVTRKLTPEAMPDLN
Assay: holdup assay
Parameters: key: below the threshold = too weak to quantify, mostly under pKd 3.1 to 4
Conditions: plain residues with an end cap or a label only (N-terminal biotin on a linker: ado-ado)

| pKd | Binder |
| --- | --- |
| below the threshold | B1 |
| below the threshold | B2 |
| below the threshold | B3 |

Biological target: T3, NHERF3_4, Q5T2W1
Assay: holdup assay
Parameters: key: below the threshold = too weak to quantify, mostly under pKd 3.1 to 4
Conditions: plain residues with an end cap or a label only (N-terminal biotin on a linker: ado-ado)

| pKd | Binder |
| --- | --- |
| 4.92 | B1 |
| below the threshold | B2 |
| below the threshold | B3 |

Biological target: TJP1_3, Q07157
Sequence (Q07157 416-512): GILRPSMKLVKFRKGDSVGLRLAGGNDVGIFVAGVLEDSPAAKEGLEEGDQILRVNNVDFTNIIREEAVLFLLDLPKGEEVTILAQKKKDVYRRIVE
Assay: holdup assay
Parameters: key: below the threshold = too weak to quantify, mostly under pKd 3.1 to 4
Conditions: plain residues with an end cap or a label only (N-terminal biotin on a linker: ado-ado)

| pKd | Binder |
| --- | --- |
| below the threshold | B1 |
| 3.95 | B2 |
| 3.48 | B3 |

Biological target: T4, FRMPD1, Q5SYB0
Assay: holdup assay
Parameters: key: below the threshold = too weak to quantify, mostly under pKd 3.1 to 4
Conditions: plain residues with an end cap or a label only (N-terminal biotin on a linker: ado-ado)

| pKd | Binder |
| --- | --- |
| below the threshold | B1 |
| below the threshold | B2 |
| below the threshold | B3 |

Biological target: T5, HTRA3, P83110
Assay: holdup assay
Parameters: key: below the threshold = too weak to quantify, mostly under pKd 3.1 to 4
Conditions: plain residues with an end cap or a label only (N-terminal biotin on a linker: ado-ado)

| pKd | Binder |
| --- | --- |
| below the threshold | B1 |
| 5.46 | B2 |
| below the threshold | B3 |

Biological target: T6, NHERF3_3, Q5T2W1
Assay: holdup assay
Parameters: key: below the threshold = too weak to quantify, mostly under pKd 3.1 to 4
Conditions: plain residues with an end cap or a label only (N-terminal biotin on a linker: ado-ado)

| pKd | Binder |
| --- | --- |
| below the threshold | B1 |
| below the threshold | B2 |
| below the threshold | B3 |

Biological target: DLG2_3, Q15700
Assay: holdup assay
Parameters: key: below the threshold = too weak to quantify, mostly under pKd 3.1 to 4
Conditions: plain residues with an end cap or a label only (N-terminal biotin on a linker: ado-ado)

| pKd | Binder |
| --- | --- |
| below the threshold | B1 |
| below the threshold | B2 |
| 3.82 | B3 |

Biological target: Inadl_3, Q8NI35
Sequence (Q8NI35 359-469): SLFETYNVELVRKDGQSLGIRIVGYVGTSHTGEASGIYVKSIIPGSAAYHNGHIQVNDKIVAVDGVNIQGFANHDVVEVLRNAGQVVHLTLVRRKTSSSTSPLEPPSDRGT
Assay: holdup assay
Parameters: key: below the threshold = too weak to quantify, mostly under pKd 3.1 to 4
Conditions: plain residues with an end cap or a label only (N-terminal biotin on a linker: ado-ado)

| pKd | Binder |
| --- | --- |
| below the threshold | B1 |
| 3.58 | B2 |
| below the threshold | B3 |

Biological target: T7, PDZD2_2, O15018
Assay: holdup assay
Parameters: key: below the threshold = too weak to quantify, mostly under pKd 3.1 to 4
Conditions: plain residues with an end cap or a label only (N-terminal biotin on a linker: ado-ado)

| pKd | Binder |
| --- | --- |
| 4.4 | B1 |
| 5.45 | B2 |
| below the threshold | B3 |

Biological target: T8, GRIP1_3, Q9Y3R0
Assay: holdup assay
Parameters: key: below the threshold = too weak to quantify, mostly under pKd 3.1 to 4
Conditions: plain residues with an end cap or a label only (N-terminal biotin on a linker: ado-ado)

| pKd | Binder |
| --- | --- |
| below the threshold | B1 |
| below the threshold | B2 |
| below the threshold | B3 |

Biological target: T9, APBA2_2, Q99767
Assay: holdup assay
Parameters: key: below the threshold = too weak to quantify, mostly under pKd 3.1 to 4
Conditions: plain residues with an end cap or a label only (N-terminal biotin on a linker: ado-ado)

| pKd | Binder |
| --- | --- |
| below the threshold | B1 |
| below the threshold | B2 |
| below the threshold | B3 |

Biological target: T10, LNX2_3, Q8N448
Assay: holdup assay
Parameters: key: below the threshold = too weak to quantify, mostly under pKd 3.1 to 4
Conditions: plain residues with an end cap or a label only (N-terminal biotin on a linker: ado-ado)

| pKd | Binder |
| --- | --- |
| below the threshold | B1 |
| below the threshold | B2 |
| below the threshold | B3 |

Biological target: LNX1_1, Q8TBB1
Sequence (Q8TBB1 261-371): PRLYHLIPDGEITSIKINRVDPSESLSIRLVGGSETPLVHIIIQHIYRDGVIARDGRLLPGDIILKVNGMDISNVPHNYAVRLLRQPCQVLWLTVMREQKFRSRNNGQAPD
Assay: holdup assay
Parameters: key: below the threshold = too weak to quantify, mostly under pKd 3.1 to 4
Conditions: plain residues with an end cap or a label only (N-terminal biotin on a linker: ado-ado)

| pKd | Binder |
| --- | --- |
| 3.5 | B1 |
| below the threshold | B2 |
| below the threshold | B3 |

Biological target: T11, APBA2_1, Q99767
Assay: holdup assay
Parameters: key: below the threshold = too weak to quantify, mostly under pKd 3.1 to 4
Conditions: plain residues with an end cap or a label only (N-terminal biotin on a linker: ado-ado)

| pKd | Binder |
| --- | --- |
| 3.54 | B1 |
| below the threshold | B2 |
| below the threshold | B3 |

Biological target: T12, LRRC7, Q96NW7
Assay: holdup assay
Parameters: key: below the threshold = too weak to quantify, mostly under pKd 3.1 to 4
Conditions: plain residues with an end cap or a label only (N-terminal biotin on a linker: ado-ado)

| pKd | Binder |
| --- | --- |
| below the threshold | B1 |
| 3.7 | B2 |
| below the threshold | B3 |

Biological target: T13, TJP3_3, O95049
Assay: holdup assay
Parameters: key: below the threshold = too weak to quantify, mostly under pKd 3.1 to 4
Conditions: plain residues with an end cap or a label only (N-terminal biotin on a linker: ado-ado)

| pKd | Binder |
| --- | --- |
| below the threshold | B1 |
| 4.81 | B2 |
| 3.51 | B3 |

Biological target: Inadl_9, Q8NI35
Sequence (Q8NI35 1530-1615): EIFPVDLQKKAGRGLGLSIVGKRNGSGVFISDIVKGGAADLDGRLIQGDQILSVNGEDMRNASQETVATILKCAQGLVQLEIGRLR
Assay: holdup assay
Parameters: key: below the threshold = too weak to quantify, mostly under pKd 3.1 to 4
Conditions: plain residues with an end cap or a label only (N-terminal biotin on a linker: ado-ado)

| pKd | Binder |
| --- | --- |
| below the threshold | B1 |
| 4.16 | B2 |
| below the threshold | B3 |

Source: publication PMC9482650, “Quantitative fragmentomics allow affinity mapping of interactomes” (Nature Communications, 2022)
